According to patent US20160289338A1 (OXFORD BIOTHERAPEUTICS, published 2016):

Assays:
[1] = target: T1, human Matriptase (cell-surface) (human, UniProt Q9Y5Y6 1-855); experiment: cell-based or functional assay
T1 sequence: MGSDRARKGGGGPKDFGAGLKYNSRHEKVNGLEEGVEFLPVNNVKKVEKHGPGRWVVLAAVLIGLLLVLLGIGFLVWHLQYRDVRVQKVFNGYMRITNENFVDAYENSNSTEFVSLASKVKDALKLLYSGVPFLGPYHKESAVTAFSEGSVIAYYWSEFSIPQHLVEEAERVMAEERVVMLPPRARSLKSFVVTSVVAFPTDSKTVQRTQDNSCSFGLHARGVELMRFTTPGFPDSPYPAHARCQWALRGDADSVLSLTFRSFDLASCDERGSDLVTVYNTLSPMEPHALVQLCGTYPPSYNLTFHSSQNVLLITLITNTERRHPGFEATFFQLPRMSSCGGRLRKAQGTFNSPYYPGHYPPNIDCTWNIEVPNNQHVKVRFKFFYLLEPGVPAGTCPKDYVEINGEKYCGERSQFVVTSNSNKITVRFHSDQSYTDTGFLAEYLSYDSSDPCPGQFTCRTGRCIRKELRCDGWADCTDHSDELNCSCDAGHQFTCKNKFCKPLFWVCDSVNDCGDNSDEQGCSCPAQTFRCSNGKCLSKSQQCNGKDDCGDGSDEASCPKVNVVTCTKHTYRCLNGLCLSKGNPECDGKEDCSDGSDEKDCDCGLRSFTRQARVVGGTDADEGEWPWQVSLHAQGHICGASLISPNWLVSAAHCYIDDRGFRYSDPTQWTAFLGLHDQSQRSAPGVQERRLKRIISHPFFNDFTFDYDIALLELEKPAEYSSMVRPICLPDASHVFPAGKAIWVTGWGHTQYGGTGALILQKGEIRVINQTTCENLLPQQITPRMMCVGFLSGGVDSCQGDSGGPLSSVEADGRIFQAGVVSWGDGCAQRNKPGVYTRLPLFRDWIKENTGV

[2] = target: T1, human Matriptase (cell-surface); experiment: flow cytometry on HT-29 cells, GMFI Facsarray; the legend box prints no unit, nmol/L is the unit of the concentration axis
[3] = target: T1, human Matriptase (cell-surface); experiment: flow cytometry on SNU-1 cells, PE GMFI
Method: The specificity of antibodies against the Matriptase selected in Example 1 was tested by flow cytometry. To test the ability of the antibodies to bind to the cell surface Matriptase protein, the antibodies were incubated with the Matriptase-expressing cells. Cells were washed in FACS buffer (DPBS, 2% FBS), centrifuged and resuspended in 100 μl of the diluted primary Matriptase antibody (also diluted in FACS buffer). The antibody-cell line complex was incubated on ice for 60 min and then washed twice with FACS buffer as described above. The cell-antibody pellet was resuspended in 100 μl of the diluted secondary antibody (also diluted in FACS buffer) and incubated on ice for 60 min on ice. The pellet was washed as before and resuspended in 200 μl FACS buffer. The samples were loaded onto the BD FACScanto II flow sytometer and the data analyzed using the BD FACSdiva software.

[4] = target: T1, human Matriptase (cell-surface); experiment: flow cytometry on H69 cells, GMFI Facsarray; the legend box prints no unit, nmol/L is the unit of the concentration axis

B1: Matriptase_A1 (antibody, V domains shown)
VH: EVQLLESGGGLVQPGGSLRLSCAASGFTFRNYDMSWVRQAPGKGLEWVSSISYSGGSTYYADSVKGRFTISRDNSKNTLSLQMNSLRAEDTAVYYCAKRGATPFDYWGQGSLVTVSS
VL: not shown
notes: Fully human monoclonal IgG from a hybridoma of an HCo12 HuMAb Mouse; supernatants were screened for human gamma, kappa antibodies; a human IgG1 isotype control was used in the ADCC assay
EC50, MabZAP internalization assay, H69 cells [1]: 74 pM | EC50, MabZAP internalization assay, HT-29 cells [1]: 183 pM | EC50 [2]: 222 pM | EC50 (read off the curve) [3]: ~500 pM | EC50 [4]: 3450 pM
